Data on two molecules can be found in patent US20160208003A1 (AFFITECH RESEARCH, published 2016).

For experiment [1], the target named is T1, human CC chemokine receptor 4 (CCR4) (human, UniProt P51679 1-360).
T1 construct: whole, on cells; Always presented on cells; also called CD194; human CCR4
T1 sequence (looked up): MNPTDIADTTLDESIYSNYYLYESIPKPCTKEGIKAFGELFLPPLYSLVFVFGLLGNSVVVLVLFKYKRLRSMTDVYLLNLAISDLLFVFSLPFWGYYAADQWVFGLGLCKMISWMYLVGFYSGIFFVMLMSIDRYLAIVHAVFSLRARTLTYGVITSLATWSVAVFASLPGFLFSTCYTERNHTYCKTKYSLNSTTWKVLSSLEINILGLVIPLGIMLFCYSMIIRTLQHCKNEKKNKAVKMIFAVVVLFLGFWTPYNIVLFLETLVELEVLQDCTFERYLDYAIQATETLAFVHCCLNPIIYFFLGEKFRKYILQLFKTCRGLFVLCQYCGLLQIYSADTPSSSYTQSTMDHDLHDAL
The experiment in a line: calculated from the IC50; CCRF-CEM cells, competitor biotinylated MDC. How it is done: (§1) The competition binding assays were performed with biotinylated MDC or biotinylated TARC on DT-40-CCR4+ and CCRF-CEM cells. DT40 and CCRF-CEM cells were cultured as described in Example 2. TARC and MDC were biotinylated using standard procedures. The biotinylation process causes some losses, so the concentrations of biotinylated MDC and TARC recited herein are approximate.
(§2) The cells were harvested from culture flasks, washed 2 times with PBS (400×g, 5 min, 4° C.) and resuspended in PBS containing 0.2% BSA and 0.09% NaN3. 1×10^5 cells per well were aliquoted into V-shaped 96-well plates (Greiner Bio-One, Frikenhausen, Germany). Cells were centrifuged (400×g, 5 min, 4° C.) and resuspended in 50 μl IgG, single chain or unlabeled ligand (1:10 dilution series starting on 100/500/26, 4 μg/ml) mixed with a fixed concentration of biotinylated ligand (10 or 20 nM, see legend to FIG. 24). The cells were incubated for 2 hours at 4° C. and mixed with a pipette every 45 min. The cells were washed three times with 150 μl PBS with 0.2% BSA and 0.09% NaN3 and stained with 3 μg/ml streptavidin PE (BD Biosciences) for 45 minutes at 4° C. […] Apparent binding affinities (KD) were calculated according to the following equation derived from previously described methods (Kipriyanov et al, 1997b; Schodin & Kranz, 1993): […]

Experiment [2] has as its target T1, human CC chemokine receptor 4 (CCR4). The experiment in a line: calculated from the IC50; DT-40-CCR4+ cells, competitor 3.3 nM biotinylated IgG 9E. As to the method: (§3) DT40 and CCRF-CEM cells were cultivated as described in Example 2. The cells were harvested from culture flasks, washed 2 times with PBS (400×g, 5 min, 4° C.) and resuspended in PBS containing 0.2% BSA and 0.09% NaN3. 1×10^5 cells per well were aliquoted into V-shaped 96-well plates (Griner Bio-One, Frikenhausen, Germany). Cells were centrifuged (400×g, 5 min, 4° C.) and resuspended in 50 μl IgG 9E10J or KM3060var (dilution series starting at 5 μg/ml) mixed with biotinylated competitor antibody 9E (0.1 or 0.5 μg/ml). The cells were incubated for 2 hours at 4° C., mixing with a pipette every 45 min. The cells were washed three times with 150 μl PBS with 0.2% BSA and 0.09% NaN3 and stained with 3 μg/ml streptavidin PE (BD Biosciences) for 45 minutes at 4° C. Cells were washed, resuspended in 200 μl PBS with 0.2% BSA and 0.09% NaN3, and transferred to a U-shaped 96 well Costar (Corning, Schiphol-Rijik, The Netherlands) plate for flow cytometry using an FACS Canto II flow cytometer (BD Biosciences, Heidelberg, Germany).

Experiment [3] has the same target. The experiment in a line: flow cytometry competition on CCRF-CEM cells; IgG titrated, competitor biotinylated TARC (ca. 20 nM). How it is done: as §1, §2
For experiment [4] the target is unchanged. Description: flow cytometry competition on DT-40-CCR4+ cells; IgG titrated, competitor biotinylated MDC (ca. 10 nM). How it is done:
as §1, §2
(Flow cytometry measures light scatter and fluorescence of single cells or particles in a stream.)

The target is the same in experiment [5]. The experiment in a line: flow cytometry competition on DT-40-CCR4+ cells; IgG titrated, competitor biotinylated TARC (ca. 20 nM). As to the method:
as §1, §2

For experiment [6] the target is unchanged. Description: flow cytometry competition on CCRF-CEM cells; IgG titrated, competitor biotinylated MDC (ca. 10 or 20 nM); second of three IC50 values on CCRF-CEM cells; inhibition of biotinylated MDC. How it is done:
as §1, §2

Experiment [7] has the same target. Description: cell-based or functional assay.
For experiment [8] the target is unchanged. The experiment in a line: flow cytometry, IgG titration on CCR4+ HEK293T cells; one site-specific binding fit (Prism). How it is done: The IgG forms of antibodies 17G, 9E and KM3060var using various CCR4⁺ cell types were used (see Example 2).
For the flow cytometry experiments, the cells were harvested from the culture flasks, washed 2 times with PBS, re-suspended in PBS with 0.2% BSA and 0.09% NaN₃ and finally aliquoted 1×10⁵ cells per well into V-shaped 96-well plates (Greiner Bio-One, Frickenhausen, Germany). Cells were centrifuged at 400×g for 5 min and then incubated at 4° C. for 45 min with different antibody dilutions.
After washing with PBS with 0.2% BSA and 0.09% NaN₃, the cells were stained with 10 μg/ml of RPE-conjugated goat anti-human IgG (AbDSerotec, Düsseldorf, Germany) for 30 minutes at 4° C. The stained cells were washed, re-suspended in 200 μl PBS with 0.2% BSA and 0.09% NaN₃ and transferred to a U-shaped 96-well plate (Corning, Schiphol-Rijk, The Netherlands) for acquisition on EasyCyte flow cytometer (Guava Technologies, Hayward, Calif., USA).

For experiment [9] the target is unchanged. Description: calculated from the IC50 (KD=IC50/(1+[bio-IgG 9E]/KD 9E)); DT-40-CCR4+ cells, competitor 3.3 nM biotinylated IgG 9E. As to the method:
as §3

Substitutions are numbered along the chain they refer to. Where “and” joins values, the source holds several entries; their conditions need not be identical. Equal entries are not always repeated.

B1: 9E10J IgG (full length human IgG1, lambda) (antibody, V domains shown)
VH: QVQLVQSGAEVKKPGSSVKVSCKASGGTFSSYAISWVRQAPGQGLEWMGGIIPIFGTANYAQKFQGRVTMTRDTSTSTVYMELSSLRSEDTAVYYCARRGGSYFDYWGQGTLVTVSS
VL: SYVLTQPPSASGTPGQSVTISCSGSTSNIGSHYVFWYQQLPGTAPRLLIYRNHQRPSGVPDRLSGSKSGTSASLAISGLRSEDEADYYCAVWDDTLSGWVFGGGTKLTVLG
notes: also called IgG 9E10J; unmodified 9E10J
As usually defined, the Kd is the constant that tells how readily two partners part at equilibrium. In general, IC50 refers to the point on the concentration scale where inhibition reaches its midpoint. On to B1, for which the Kd in experiment [1] was 0.2 nM; in [2], 0.09 nM. Moreover, the IC50 in experiment [3] was 4.26 nM and 4.57 nM; in experiment [4] it was 0.76 nM; in [5] it was 0.26 nM and 0.4 nM; in experiment [6], 6.28 nM.

B2: 9E IgG (full length human IgG1, lambda) (antibody, V domains shown)
VH: B1 VH with S31N, M70I, R72A, T74E, V79A
VL: B1 VL
notes: also called IgG 9E; IgG1 9E
Take B2: in experiment [7], the “ADCC of CCRF-CEM cells with human PBMCs, EC50” value was determined as 0.046 µg/mL; the “Ca++ flux in CCRF-CEM cells: signal response to MDC stimulation (% of MDC in the absence of IgGs), IgG 10 µg/mL” value stood at 64%; the “Ca++ flux in CCRF-CEM cells: signal response to TARC stimulation (% of TARC alone), IgG 10 µg/mL” value is 3%. Binding in experiment [8] was characterised by a dissociation constant (Kd) of 0.36 nM. Moreover, in experiment [9], the Kd was 2.1 nM.
